Assay results from a protein production outcome set (Wang et al. 2014).

Test: label from the status in PepcDB records
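Note: failed if final PepcDB status was selected cloned or expressed and not failed if soluble or beyond.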

Sequence | protein production
MTRPIFYDPTGRRSLLAKRSLAVVFLAVILAALAFATTLVAVPRQRALSLPQPHFEAASLHRGHGLSRLRSWLPRLHLQRSQEALAIGFYQPRSDASFQSLSRHGNQLDWVVPALLNVAGPEHRLAVSNDPRFDSFVAAGHHHYKVLPMVQNVGGDGWDGANVARILENATERHALERQLADYVARRGDAGLVLDFEDLPATAMRPYVAFLRETNALLPAGAQLAVTAPAGEDDWPIAALGRAADKVILMAYDEHWQNGAAGPIASQTWFTNEVEKSARALPADRLVIALGSYGYDWHQGGTDALSLSDAWLAAHDSHAPIIFDKASGNAGFAYEQDGVSHTVWMLDAATDWNEMLAVQRLGIGNLALWRLGTEDPGFWNDLAALRSGKAPDLSRLVSEGGNDVEGTGEILRITATPVAGSRTVAFGDQHLIRDERYGDLPTPFVVRRTGAANPKLLALTFDDGPDPKWTPKVLSTLEAAHVPATFFVIGENALVRPDLLRRMVADGDEIGNHTYTHPNLAGSSEAETRLEINATQRLVQAYTGRSMTLFRAPYFGDAEPTTADELQPALRAQQAGYTIVGLHVDPNDWQNPGTDEIVRQVVNQIHNATEQSSSNVILLHDGGGDRSQTVAALPRIVAVLRAEGYSFVTASQLVGIPPQAAMPRLSSSDLAAVRVDVAAFLALDGLVTLFSWLFFVAIALGIARAVIMAGLAWWQSRSPRAEPPAFEPTVSVIIPAWNEERVIAASVERVLASDYPALQVIVADDGSKDATSAVVARHFGHDPRVTLLTLANGGKAAALNRALRHATGEVVIALDADTQFEPLTIRRLARWFADPRIGAVAGDARVGNRVNLVTRWQAVEYITAQNLERRALAGFDAMTVVPGAVGAWRRAALDSVGGYPENTLAEDQDLTIAIQRKGWRVTYDPRAVAWTEAPQTFRALARQRYRWAFGTLQCLWKHRKVITSRKPAGLGLVGLPQAWLFQIAFAAISPLIDGALIASIISTVVRVVQHGWAQTQGDLGRMAIYWSLFTAIDVICGWIAYRLDDKRPPYPAHLLVAQRIVYRQIMYWVVLRALASAIGGWIVGWGKLERTGTVSPAPERA | failed
MTRPMRLAAVAAACLTMALAGCQTNGAGSTDGVVRTNEPSKGDVTSFGDAFDGLKTVSDVEYYASDQAVAEATNQFRAENYGNAGALFFKATQLAPNDGGAWMGLAASCDRIRRFDLADRAYGKAFKLVGASAEYYNNVGYSYLLRGKLQDARTSFLKAYELAPNDPTVANNLKLLSSSVQNIER | failed
MTRRGWILFVALCVLWGIPYLLIKVAVRDLTPASLVFLRTATGAVLLLPFVLVRGNLRPVLARWRPIALFTFGEMAVPWLLLADAERHVTSSLAGLVIAATPLVGALASRLSAGHEPLGARRMSGLAVGLAGVVALLGLDLGRGDARAVAELAVVVIGYALAPRIVARRLSDLPALDVVAVSLAMCALAYAPFGIAQLPAALPPAEALGAVAGLGVLCTALAFTLFFQLIAEVGPVRATVVAYVNPAVAVAAGVTLLGEPFTVGTAVGFALILGGSWLATSGAAGRARTPAPASAPAAPGAVAPAAAERAG | failed
MTRRVKTGIPGVDEILHGGIPERNVVLLSGGPGTGKTIFSQQFLWNGLKMGEPGIYVALEEHPVQVRQNMAQFGWDVKPYEEKGMFAMVDAFTAGIGKSKEYEKYIVHDLTDIREFIEVLRQAIRDINAKRVVVDSVTTLYINKPAMARSIILQLKRVLAGTGCTSIFVSQVSVGERGFGGPGVEHGVDGIIRLDLDEIDGELKRSLIVWKMRGTSHSMRRHPFDITDKGIIVYPDKVLKRGKVLEL | not failed
MTRSQNVLAGLLLAGLLAPHAVSAEGYQTPPPELAALVDAPRTPLQSLNPQGDAVLQTHRPGLPAIADVAQPELKLAGLRLNPRMRAASRFDFGSALTLLDVKSGKSRPVTGLPARPRIADNAWSPDGKQVALSLWGDRGVELWLLDAASARVRRLGDFHLNASSGRGFAWMGAQLLVKLLPAGQGPAPEKPSTPTGPNIQQSAGGALSQTRTYPDLLKTPYDADLLDYELNSQLALVDLSGRTKLIGKPDRYLSVQASPDRRYLLATKLQRPYSTLVPLNRFPRRIEVLNLQGDSVHLVAQRPLLERMPSGNDAVETGPREVQWRTDAPATLFWAEAQDGGDPSTPAKARDALYLLPAPFQQPPLKLQELASRFAGIQWGRGDLALVSEYWWKTRDLKVWRVRPAEPDHAPTLLNRRSSEDRYADPGSPAMVSNADGLPVLQTSPDGGSLYLLGEGASPEGDRPFIDQLNLADNKATRLWRSQAPWYEAPMAVLDGGKTALLSREQADAPPNLYLKTLGQGGGLKQLTFFPHPTPQLKNVQKRQLRYKRADGIDLTATLYLPPGYDAKRDGPLPMLMWAYPAEFKSADAASQVTDSPYRFNRVGYWGPEALLARGYVVLDDPSMPIVGAGKQEPNDTYLPQLKMDAQAAVDEVVRLGVADRDRIAIGGHSYGAFMTANLLAHTRLFRAGIARSGAYNRTLTPFGFQSEERDFWQAKDVYQAMSPFNYAEQIKDALLLIHGEADNNPGTFPIQSERMYQALQGLGGTVRLAMLPAESHGYRARESILHMLWEEDRWLDQFVKRAKPRAQGTAAR | failed
MTRTFDTPLPIDDALDELTAALEASNTAVLVAPPGAGKTTRVPLALLDAPWLRNQKIIVLEPRRIAARASAERMAKTLSEKAGERIGYRVRFGSKVSRATRIEVVTEGIFTRQILDDPELNGVAAVLFDEFHERSLDADLGLALARDAQQGLREDLRILVMSATIDGARVARLLGDAPVVESLGRAFPVETRYLGRRSDAPLERQMAEAIAQALRAETGSVLAFLPGAAEIRRTETMLRERVQDPAVEIVPLFGALDAAVQDRAIQPAPKGQRKVVLATSIAETSLTIEGVRIVVDCGLSRVPRYEPDLGLTRLETVRASRAAVDQRRGRAGRIEPGVCYRLWDEPQTASLPAYTQPEILSADLSSLLLDLAQWGVADPSSLAFLDPPPQPALKEARELLGELGALDPDGRITDEGRSLRAMALPPRLARMIVDAARHDCAKDAAEVAAILTERGLGGDSADLDNRRDQFRRDRSQRASSARQMAQRWATQAASSSPSPQDAGELSSGVLLAFAFPDRVAKNRGNGSFTLANGRGAAVEQTSALARAPYLAVGELTGSAAQGRILLAAPIALSEIELHFGDQITDADEVSFDRSAMALRARRRRALHAITLSEAPLALTPSEQTARVLAEGLVVAGLDRLPWSKQLQQWRGRVMFLRKAEGDPWPDLSDAALAETRENWLVPALFDKTGLKDFSASDLSDALMNLLPWELRARLDREAPTHFEAPTGSKLPIDYEAEQGPTIAVRLQELFGLTTHPSVAGGAVPLVLELLSPAHRPVQVTRDLPGFWRGSYAGVRADLRGRYPRHPWPEDPASAPPTRRAKPKGT | failed
MTRYALLVRGINVGGKNKVVMAELRQELTNLGLEKVESYINSGNIFFTSIDSKAQLVEKLETFFAVHYPFIQSFSLLSLEDFEAELENLPAWWSRDLARKDFLFYTEGLDVDQVIATVESLELKDEVLYFGKLGIFWGKFSEESYSKTAYHKYLLKVPFYRHITIRNAKTFDKIGQMLKK | not failed
MTSAREAFDLYRAGRTAEAAALCERLVAAAPSVEAWHLLGVARLELGAAQAALTALDAGLALDPVRPGLLSARTLALTSLHRDDEAVVAARAALAVDPDNPPVFNALAVSLQRLGGFSEALAAIDHAVAAAPREAAYRAHRAALLVLLNRPAEAARDLEAVLEVNPSHPRVAGDLMWARRQTCDWREDAALDMLVKADLKLGRAGVAPFAALALFDLPVLHRRCATLSAPPSVPAPVWPVRRPGERLRVAYLSSDLHEHATARLLAGVLEAHDRSRFEIFAVSYGPETGGAMQERLRAACEHWIEARRLSDAEIALKCRQQGVDIAVDLKGYTQDGRPGILAHRAAPLQVSWLGYPGTLGAHADVVLADAVTLPPGAETNWSEAVVRLPCYQPNDGLTSVIPAPSRADMGLPERVRVFCCFNNPAKITPEVFATWMAILRAAPDSVLWLYAGAPGAADNLRGHARAAGVAPERLVFAEPAPHEAHLARHVLADLVLDTWPYGAHTTASDALRMGVPVLTLPGESFASRVGASLATAIGMTELIATSRADYVAKALAMAADGALKPRVAEAVRRSNLFDPVAFARSLETVYAGLVRR | failed
MTSFDRPFEAARPDGENPSAHETLAEGGRLRPEATYTIPARQGRAIRMAQGEALMVINRDGSQIGDFWAFVEGDCGEYLSMEHLRPTLRRVSPRPGDVLVSNRRRPILTLLEDSSPGVHDTLVASCDVHRYAQLGHEGYHDNCTDNLRMALGALGLRPTTVPCPLNLWMNTPVVEGGAMEWRPPVSRRGDHVLFRAELDVVVVISCCPMDLLPINGEEAQPRALDVRLRPRPA | not failed
MTSFVGTRGRGNCGTAPGRSPSLQAHGKMGRRREPGVPEESCCSHDACCEKAAKPRVEEVATSGCADCCSAGVPVFDGLDPRYKRILWTVIAINAAMFVSEMVAGHLAGSQALKADALDFLADTVTYGLSLSVIGASLKTRATAALFKGVSLSAMAAWVFGSTVYQTLILGLPRAELMGAMSLAALAANLTSVLLLARYKDGDANVRSVWLCSRNDAVGNVIVMIAAVGVFGTGTAWPDLAVAAVMAGIFLTSSLQILRQAWAEYRGGQAAATA | failed
MTSGIDLQNSFLQSLQGFGLPPGLAKLFWIPLPSILMIIGATVGVLVVVWLERKISAAAQQRIGPEYAGPLGVLQPVADGIKLVFKEDVVPAKADPWLFTLGPVLVVLPVFLSYLIVPFGQNLVITDINVGIFLWIALSSIAPIGLLMSGYASNNKYSLLGGLRAAAQSISYEIPLSLAVLAIVMMSNSLSTIDIVDQQSGYGILGWNIWRQPVGFLIFWIAALAECERLPFDLPEAEEELVAGYQTEYAGMKFALFYLGSYVNLVLSALVFSVLYLGGWDFPIPLENVANWLGVAPTTSWLQVLMAALGITMTVLKSYFLIFIAILLRWTVPRVRIDQLLNLGWKFLLPVALANLLITAALKLTFPMAFGG | failed
MTSLRRRCIRQVPNTLTVGRFALVPVAAGFIWTGDLRAAFWVFVAAGITDALDGWLARVLDARTALGATLDPLADKALLVATFFTLALTGAIPLWLLGLVALRDALILAGFAWLRLRAGRPIRVTPNILGKANTLAQILLCAAVIGASAFTLDLSAVIAVLTPVVAATTIISGIAYLRMWLRRGWDGQQAHDRIERTRRNNQQRDDR | failed
MTSPKHPPIRRDWLSKILAGTLLGFTLALGCSGLLVLALPQLPLPVKAQLAMWVVMPLWLGVLSGCFAFRDGRRAWLWLGGATALVLDLLVVARLS | failed
MTSPVQATPEPQPGLVARLSAEALGSMFVVVAAVGVGIFSNPGAAPLPAALATGLTVTAAMLAFGYVSGGHFNPAITLGNLIAGRIRAVAAVAYVAAQIIGSVVGAALMYFVVTTVPVLTDARAAFDVVAPGFGDHASAQTQMAGVLLVEVLGSALLVAVFLGATAGRRALPAMAPFAVGLAMAVLLQLGQVLGNLPFNPARATAQAFFSSPWAIEGLWLFWVAPLMGAALAGLAFRGFQGLSQAAVADTDHFHGGTDGINDAFDADDEPAEDSEVKEEAAAKADIAPSRAVPTVPVTDDARDFFDGKKGK | failed
MTSQGRAAMVRRMHDPQQPIRWRDLDLDPTHWVREILRVLGLALSRLWGRDVMLYVGGVSFFALLAVFPGLAILIGLYSLFLTPETAAWQAVKLAELIPSGARSIVQDELSRLAHAPGQTISLQSGVVLIVGAYAAHRGFKALLAGLSFIHDEENQRGFLGFNLMALLVLMAAFGLLFIMSGIFLTLRLLGTALELRPLAGVSWIQSEWTWASFGIVVGMSLVYRYAMSRQIVGWRASIAGGVAAAALCVFMSWASAFYVEKVVHLGATYGSVSAVIIFLIWLSWSVNAIFFGGALATEVEIALDERPRALLEGPRPIALKAPSESES | failed
MTSREDEIRDFLATHGYADWNRTPLAGDASSRRYQRLRSPTGAKAVLMDWSPEEGGDTQPFVDLAQYLRNLDISAPEIYAEEHARGLLLIEDLGDALFTEVINNDPAQEMPLYRAAVDLLIHLHDAQTPELARLDPETLSEMTRLAFSEYRYAILGDAAEDNRKRFEHRFAQILSAQLEGDMVFVHRDFHAQNLLWLPEREGLARVGVIDFQDAKLGHRAYDLVSLLQDARRDVPAQVEAQMIDHYIQATGVDESHFRSAYAVIAVQRNMRILGIFARLSQRFGKRHYIEFVPRVWAHFERGLAHPALASAAEEILNALPAPAPEVLERLRA | not failed
